In patent US20210379147A1, “METHOD AND SYSTEM FOR TREATING CANCER UTILIZING TINAGL1” (The Trustees of Princeton University, priority 2018, published 2021):

Legend:
[1] = system: primary tumors and lung lesions; assay: IHC staining of primary tumors and lung samples for proliferation and apoptosis markers; type: in vivo, mice; settings: versus PBS
From the text: FIGS. 7A-7D are graphs indicating the percentage of Ki67^+ (FIGS. 7A and 7B) and cleaved caspase-3^+ (FIGS. 7C, 7D) cells counted in primary tumor (FIGS. 7A, 7C) and spontaneous lung metastasis (FIGS. 7B, 7D) samples from mice treated with r-Tinagl1(711, 721, 731, 741) or PBS (710, 720, 730, 740) collected for H&E and IHC staining with indicated antibodies.
To address how Tinagl1 inhibits primary tumor growth and metastasis, primary tumors and corresponding lung samples were stained for proliferation and apoptosis markers. […] Consistent results were also observed in the staining of the tissues collected from the mice injected with the SUM159-M1a cells.
TIC staining was performed as previously described (Wan et al., 2014). Briefly, Paraffin-embedded primary tumor or lung samples were sliced into 4 μm thickness. The slides were baked overnight at 60° C. Next, the tissue slides were washed with PBS after deparaffinization and hydration and then boiled in citrate buffer at 100° C. for 40 min. After treated with 3% H2O2 for 30 min to block endogenous peroxidase, slides were incubated at 4° C. overnight with Ki67 (Leica Biosystem, Ki67-MM1-L-CE-S), cleaved caspase-3 (Cell signaling, 9661S), p-EGFR (Cell signaling, 3777), p-FAK (Cell signaling, 8556), CD31 (Cell signaling, 77699), -SMA (Sigma, A5228), or Tinagl1 (Sigma, HPA048695) antibodies. […]

SUM159-M1a = SUM159-M1a orthotopic tumors, single or combined agent treatment; type: in vivo, NSG female mice; settings: SUM159-M1a model
Protocol: FIG. 17D is an image of WB analyses where NSG female mice were injected with 10^4 M1a cells by MFP injection, and treated with the indicated reagents twice per week when tumors reached to 2 mm in diameter, then after 5 weeks of the treatments, the primary tumors of each group were collected and activation of EGFR and FAK in primary tumor of each group was tested by WB.
FIG. 17E is a graph illustrating tumor volumes of each treatment group from FIG. 17D.
For xenograft studies, 8-weeks immunocompromised NOD Scid Gamma (NSG) or immunocompetent FVB females were used. Cells were suspended in 10 μl of PBS for mammary gland injection (MFP), or were suspended in 100 μl of PBS for intravenous injection. For human patient-derived xenograft (PDX, HCL001, kindly provided by Dr. Alana Welm) study, we followed the standard protocol for PDX transplantation, maintenance and digestion of the tumors (DeRose et al., 2011). 2×10^4 cells were suspended in 10 μl of PBS and subjected to MFP injection. […] Primary tumors were quantified once per week via caliper measurement. All cell lines used for lung metastasis experiments were stably labeled with a firefly luciferase expressing vector and were monitored by weekly bioluminescent imaging (BLI). At protocol-defined endpoints, lungs were dissected and fixed in bouin's solution and the metastatic lesions were counted.

SUM159-M1a cells = assay: Cell adhesion assay of SUM159-M1a cells on coated plates (luciferase); type: cell-based, human
Protocol: FIG. 15A is an graph of attached cells quantified by luciferase assay where a 96-well plate was first coated with 10 μg/ml of FN, then SUM159-M1a cells were incubated with 10 μg/ml of indicated antibodies or r-Tinagl1 at 4 C for 30 min, after when cells were seeded on the plate at 30 k cells per well, and 30 min after seeding, the plate was washed with PBS and quantified by luciferase assay.
Integrin α5β1 and αvβ1 are the major receptors for FN, and the interaction between FN and the integrin receptors triggers the activation of the downstream FAK signal pathway. To test whether Tinagl1 may interfere with cell adhesion mediated by the interaction between FN and its receptors integrin α5β1 and αvβ1, SUM159-M1a cells that were pre-incubated with r-Tinagl1 were seeded on the plates coated with FN or other ECM proteins for various period of time (5 min to 2 hours) and the number of adhered cells were quantified after washing. […] Next, SUM159-M1a cells that were pre-incubated with r-Tiangl1 or various integrin-blocking antibodies were seeded on the plate coated with FN, and relative numbers of attached cells were measured.
96-wells were coated with 10 μg/ml of indicated proteins. […] Cells were then lysed, and luciferase activity which represents cell number was measured using the Glomax 96 microplate luminometer (Promega). […]

B1: r-Tinagl1: full length recombinant human Tinagl1 with 6×His tag at the C-terminus [SEQ ID NO.: 24], expressed in HEK293T cells (protein, listed as Homo sapiens)
chain: MWRCPLGLLLLLPLAGHLALGAQQGRGRRELAPGLHLRGIRDAGGRYCQEQDLCCRGRADDCALPYLGAICYCDLFCNRTVSDCCPDFWDFCLGVPPPFPPIQGCMHGGRIYPVLGTYWDNCNRCTCQENRQWQCDQEPCLVDPDMIKAINQGNYGWQAGNHSAFWGMTLDEGIRYRLGTIRPSSSVMNMHEIYTVLNPGEVLPTAFEASEKWPNLIHEPLDQGNCAGSWAFSTAAVASDRVSIHSLGHMTPVLSPQNLLSCDTHQQQGCRGGRLDGAWWFLRRRGVVSDHCYPFSGRERDEAGPAPPCMMHSRAMGRGKRQATAHCPNSYVNNNDIYQVTPVYRLGSNDKEIMKELMENGPVQALMEVHEDFFLYKGGIYSHTPVSLGRPERYRRHGTHSVKITGWGEETLPDGRTLKYWTAANSWGPAWGERGHFRIVRGVNECDIESFVLGVWGRVGMEDMGHHVDHHHHHH
modifications: C-terminal 6xHis tag
- Ki67+ cells [1]: significantly fewer
- cleaved caspase-3+ apoptotic cells [1]: no difference
- lung metastasis (SUM159-M1a): stronger effect than single treatment of Erlotinib
- cell adhesion on FN or other ECM proteins (SUM159-M1a cells; 10 μg/ml r-Tinagl1 pre-incubation, 5 min to 2 hours): blocked cell adhesion mediated by FN but not other ECM proteins
- cell adhesion on FN (antibody blocking assay) (SUM159-M1a cells; 10 μg/ml, 30 min after seeding): significantly reduced cell adhesion
